From paper PMC9746817, “Activated cholesterol metabolism is integral for innate macrophage responses by amplifying Myd88 signaling” (JCI Insight, 2022) come the findings set out here.

For assay [1], the target named is 3H-cholesterol. Nature of the assay: 3H-cholesterol binding to recombinant GST-tagged protein; GST-Myd88 recovered and radioactivity measured. Conditions: 3H-cholesterol 10 μM; n = 3; mean ± SD; parent: est. 3900; read off a plot.
Assay [2] addresses T1, Myd88 CRAC domain (Mus musculus, UniProt P22366).
T1 construct: CRAC-A Tyr187, CRAC-B Tyr227
Nature of the assay: NBD-cholesterol fluorescence binding assay. Conditions: labelled compound; paper words the KD as that of cholesterol; NBD position (22- or 25-) not told.

T1 sequence (P22366 whole entry, the tested form may be a part): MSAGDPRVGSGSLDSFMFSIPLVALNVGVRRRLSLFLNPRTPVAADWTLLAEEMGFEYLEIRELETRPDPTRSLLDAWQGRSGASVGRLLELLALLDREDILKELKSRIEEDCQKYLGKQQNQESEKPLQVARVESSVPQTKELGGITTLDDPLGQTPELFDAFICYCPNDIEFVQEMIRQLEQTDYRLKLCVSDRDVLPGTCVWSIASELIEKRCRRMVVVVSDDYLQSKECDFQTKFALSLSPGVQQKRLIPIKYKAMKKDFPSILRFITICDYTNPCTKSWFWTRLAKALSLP

Consider “GST-tagged mouse Myd88 (from UniProt P22366) Y227F”, for which the response in assay [1] amounted to 1900 CPM.
A word on the Kd: it is the equilibrium constant for the complex coming apart. `C[C@H](CNc1ccc([N+](=O)[O-])c2nonc12)[C@H]1CC[C@H]2[C@@H]3CC=C4C[C@@H](O)CC[C@]4(C)[C@H]3CC[C@]12C` [NBD-cholesterol] gave a Kd in assay [2] of 14.1 µM.
